The text below walks through data of patent US20260193317A1, “COMBINATION THERAPY WITH ACTRIIB RECEPTOR VARIANTS AND GLP-1 AGONISTS” (35PHARMA Inc., priority 2023, published 2026).

Data set [1] is described as follows: SEC-HPLC monomer and HMW content of purified fusion proteins. Format: physicochemical. The following applies: after Protein A purification. An excerpt:
Given that protein aggregation can be indicative of reduced conformational stability and decreased activity, Size-Exclusion Chromatography-High Performance Liquid Chromatography (SEC-HPLC) was used to determine the purity of each ActRIIB-ECD construct. This method measured the percentage of intact monomeric species as well as the presence of aggregates and/or degradation products.
All proteins expressed efficiently in CHO and/or 293 cells and purification efficiency of each using Protein A affinity chromatography was similar.
Background: SEC sorts molecules by how far they enter the pores of the column.

Data set [2] is described as follows: Single-injection body weight gain in wild-type mice. Format: in vivo. The following applies: single 25 mg/kg subcutaneous injection, after 4 days, vs vehicle. As for the experimental part: To investigate the target engagement of exemplary ActRIIB-ECD polypeptide constructs in vivo, mice (n=6/group) were injected with given agents (25 mg/kg, subcutaneous injection), and sacrificed after 4 days to assess body weight gain.

Data set [3] is described as follows: Skeletal muscle mass and Mss51 expression in lean mice. Format: in vivo. The following applies: 25 mg/kg twice weekly, seven days. As for the experimental part: The effects of P1229 on body composition and metabolism in lean mice were further assessed.
Additional assays were performed to assess the relative expression level of Mss51, a skeletal muscle-specific gene. Mss51 is a key target of myostatin signaling, with a role in fatty acid oxidation, glycolysis, and oxidative phosphorylation.

For data set [4], the system named is diet-induced obese (DIO) mice. Put plainly: Body composition and metabolism in diet-induced obese (DIO) mice. Format: in vivo. The following applies: 3 weeks s.c., P75, P1229 25 mg/kg twice weekly, P1373 5, 20, 50 mg/kg twice weekly, P1307 20 mg/kg weekly. The method, then:
Experiments were performed to assess the effects of P1229 on body composition and metabolism in diet-induced obese (DIO) mice. DIO mice were purchased from Jackson Laboratories (#380050). Briefly, mice were fed a high-fat diet (HFD, 60% kcal from fat) from 6 weeks of age until 22 weeks of age (total of 16 weeks on the HFD). […] After 3 weeks of treatments, some animals were sacrificed and scanned by EchoMRI […] (FIGS. 11A-F), while others were sacrificed for tissue collection and RNA analysis. Animals were maintained on the HFD throughout the acclimatization and treatment periods. The murine version of bimagrumab used for these experiments comprises the heavy chain amino acid sequence of SEQ ID NO: 376 and the light chain sequence of SEQ ID NO: 377.

The target in data set [5] is T1, recombinant human activin A (human, UniProt P08476 311-426).
T1 sequence (looked up): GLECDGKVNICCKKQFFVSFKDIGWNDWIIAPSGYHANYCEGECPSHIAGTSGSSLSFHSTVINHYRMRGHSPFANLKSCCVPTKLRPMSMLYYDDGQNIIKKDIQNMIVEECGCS
In words: cell-based or functional assay.

For another data set, the target named is T2, activin B (UniProt P09529 293-407).
T2 sequence (looked up): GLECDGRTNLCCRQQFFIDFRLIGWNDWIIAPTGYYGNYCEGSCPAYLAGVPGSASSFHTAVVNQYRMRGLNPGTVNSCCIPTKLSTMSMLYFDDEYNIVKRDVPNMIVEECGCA
Put plainly: cell-based or functional assay.

A further data set concerns the target GDF-8 (UniProt O14793 267-375). In words: cell-based or functional assay.
Another data set addresses GDF-11 (UniProt O95390 299-407). In words: cell-based or functional assay.
The target of data set [6] is T3, BMP-9 (UniProt Q9UK05 320-429).
T3 sequence (looked up): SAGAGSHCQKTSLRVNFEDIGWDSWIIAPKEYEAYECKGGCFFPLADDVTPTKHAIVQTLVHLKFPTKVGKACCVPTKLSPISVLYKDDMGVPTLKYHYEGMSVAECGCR
Put plainly: cell-based or functional assay.

Another data set has as its target T4, BMP-10 (UniProt O95393 317-424).
T4 sequence (looked up): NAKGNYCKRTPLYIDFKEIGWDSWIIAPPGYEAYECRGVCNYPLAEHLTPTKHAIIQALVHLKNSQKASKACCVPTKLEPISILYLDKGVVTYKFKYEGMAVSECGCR
Put plainly: cell-based or functional assay.

The test system of another data set is TGFβ superfamily ligands. Put plainly: Neutralization profile across TGFβ superfamily ligands (HEK293 and HepG2 reporter assays, summary). Format: cell-based, human. As for the experimental part:
Potency testing by neutralization on cell-based assays. Characterization of the activin A, activin B, GDF-8, and GDF-11 inhibition potency (IC50) of the fusion proteins was performed using a cell-based reporter assay. TGFβ-reporter HEK293 cells were obtained from InvivoGen (San Diego, CA, cat. no. hkb-tgfb) and were maintained following the manufacturer's instructions. Briefly, cells were grown in high-glucose DMEM, containing 10% heat-inactivated FBS, 30 μg/mL blasticidin, 250 μg/mL hygromycin B, and 100 μg/mL zeocin (hereafter, “growth medium”). Once the cells reached 70-80% confluence, they were detached in growth medium by gently tapping on the flask. For all assays, cells were seeded in 96-well plates at a density of 20,000 cells per well in growth medium. Cells were left to attach for 10 minutes at room temperature (RT) prior to being transferred to a 37° C. incubator (5% CO2) overnight. The next day, treatments were prepared by combining the appropriate concentration of agent with activin A, activin B, GDF-8, or GDF-11 for 30 min at RT (shaking at 150 rpm). Treatments were conducted in high-glucose DMEM (serum-free and with no selection agents), and the final concentration of cytokine (ligand) was 0.3 nM. Growth medium was removed from the culture plates, and cells were treated with the appropriate mixes of fusion protein and cytokine. Treatment duration was for 18-22 h at 37° C. (5% CO2). All treatments were performed in technical duplicates and at least one or two independent experiments were conducted for each cytokine. At the end of the treatment period, supernatants were transferred to a new plate, and centrifuged at 300 RPM for 3 min. Forty microlitres of supernatant from each condition was transferred to a new plate, into which 180 μL of Quanti-Blue reagent (InvivoGen, cat. no. rep-qbs) was added. Quanti-Blue reagent was prepared following the manufacturer's instructions. Samples were incubated for 45 min at 37° C. At the end of the incubation, absorbance was read at 650 nm. The data were plotted in GraphPad Prism, which was used to calculate IC50 values as a non-linear regression.
Characterization of the BMP-9 and BMP-10 inhibition potency (IC50) of the fusion proteins was performed using a second cell-based reporter assay. Human hepatic HepG2 cells were transfected with a SEAP-encoding plasmid, in which SEAP expression is under the control of the murine Id1 promoter. A stable pool was generated from this transfection. Cells were grown in EMEM, containing 10% heat-inactivated FBS and 200 μg/mL zeocin (hereafter, “HepG2 growth medium”). […] For all assays, cells were seeded in 96-well plates at a confluence of 100,000 cells per well in HepG2 growth medium. Cells were left to attach for 10 minutes at RT prior to being transferred to a 37° C. incubator (5% CO2) overnight. The next day, treatments were prepared in EMEM (2.5% heat-inactivated FBS and with no selection agents) by combining the appropriate concentration of agent with BMP-9 or BMP-10 for 30 min at RT (shaking at 150 rpm). Treatments were conducted in EMEM (2.5% heat-inactivated FBS and with no selection agents), and the final concentration of BMP-9 and BMP-10 was 2 ng/mL and 40 ng/mL, respectively. HepG2 growth medium was removed from the culture plates, and cells were treated with the appropriate mixes of fusion protein and cytokine. Treatment duration was for 20-24 h at 37° C. (5% CO2). […]
Background: In a reporter assay the amount or activity of a reporter protein is the signal.

The target of data set [7] is T5, BMP-9 (Homo sapiens, UniProt Q9UK05).
T5 sequence (Q9UK05 320-429): T3 sequence (looked up)
Put plainly: Small-scale BMP-9 ELISA with CHO supernatants. Format: binding. Particulars: BMP-9 10 ng/mL. The method, then:
Small-scale testing of ActRIIB-ECD fusion proteins. Additional investigation of a series of exemplary agents was performed using proteins expressed in CHO cells. Briefly, DNA encoding the ActRIIB-ECD-Fc fusion constructs was transfected in cells seeded in 12-well plates in a final volume of 1 ml. After 7 days, the supernatant was harvested, clarified, and the amount of expressed protein in each well was quantified using standard methods. The potency of each agent for inhibition of activin A, BMP-9 and BMP-10 was determined in three separate assays.
The next day, the plate was washed three times. […] Expressed proteins in the supernatants were diluted 1 in 2 in assay diluent (0.5% BSA, 0.05% tween-20 in PBS) and 100 μl was added to the 96-well plate in technical duplicates. After a 1.5-hour incubation at RT, the plate was washed three times. […] In this assay, a loss of signal indicates less binding of the exemplary agent to BMP-9. Results are expressed as a % of the signal obtained with wild-type ActRIIB-Fc (P75).

Chain of GDF-11 (O95390 299-407 limits assumed): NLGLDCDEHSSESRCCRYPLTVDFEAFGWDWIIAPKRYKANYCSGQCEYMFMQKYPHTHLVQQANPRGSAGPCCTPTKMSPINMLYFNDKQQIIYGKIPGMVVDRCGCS

As to “P75: human wild type ActRIIB-ECD linked to human IgG1 Fc domain by a triple glycine linker; SEQ ID NO: 171; benchmark [reference compound]”, in [1], the “high molecular weight (HMW) content (SEC-HPLC)” value worked out at 16% and the “monomer content (SEC-HPLC)” value came out at 84%. Moreover, the body weight gain result in [2] was “statistically significant body weight gain”. Moreover, the “tibialis anterior and gastrocnemius weight” value in data set [3] was “significantly increased”. In data set [4], the “fat mass and lean mass (EchoMRI)” value is “promoted lean mass gain but less fat loss”.

B1: P1375 (Fc fusion)
chain: ETRECIYYNANWELERTNQSGLERCEGEQDKRWHCYASWRNSSGTIELVKKGCWLDDFNCYDRQECVATEENPQVYFCCCEGNFCNERFTHLPEAGGPEVTYEPPPTGGGGSGGGGSGGGGSGGGGTHTCPPCPAPELLGGPSVFLFPPKPKDTLYITREPEVTCVVVDVSHEDPEVKFNWYVDGVEVHNAKTKPREEQYNSTYRVVSVLTVLHQDWLNGKEYKCKVSNKALPAPIEKTISKAKGQPREPQVYTLPPSRDELTKNQVSLTCLVKGFYPSDIAVEWESNGQPENNYKTTPPVLDSDGSFFLYSKLTVDKSRWQQGNVFSCSVMHEALHNHYTQKSLSLSPG
For the molecule B1, the “Activin A IC50; TGFβ-reporter HEK293 cells” value in data set [5] was found to be 0.53 nM. Further, the “Activin B IC50; TGFβ-reporter HEK293 cells” value with activin B was 2 nM. The “GDF-8 IC50; TGFβ-reporter HEK293 cells” value with GDF-8 worked out at 0.33 nM. Besides, the “GDF-11 IC50; TGFβ-reporter HEK293 cells” value with GDF-11 stood at 0.39 nM. Further, in the data set with BMP-9 [6], the “BMP-9 IC50; BMP-reporter HepG2 cells” value is more than 1000 nM. In the data set with BMP-10, the “BMP-10 IC50; BMP-reporter HepG2 cells” value was more than 100 nM.

B2: P1375: hActRIIB L33W, 19 aa linker, IgG1 YTE-DL Fc; SEQ ID 234 (protein)
chain: B1 chain
On to B2, for which the “impact of modifications in the Fc sequence on activin A, activin B, GDF-8, and GDF-11 potency” value in the data set on TGFβ superfamily ligands (all ligands) is listed as “comparable to P1373”. Also, in the data set on TGFβ superfamily ligands (both ligands), the “impact of modifications in the Fc sequence on BMP-9 and BMP-10 potency” value was “comparable to P1373”. Further, in the data set with BMP-9 [7], the “BMP-9 binding, ELISA signal relative to P75” value is “near-undetectable binding to BMP-9”. Besides, in data set [1], the “high molecular weight (HMW) content (SEC-HPLC)” value worked out at 0% and the “monomer content (SEC-HPLC)” value amounted to 99%.
